Where a chain is given by its changes, count along the chain named. Names may count otherwise.
T1: kinase-deficient IKKα (K44M), Q60680
T1 chain: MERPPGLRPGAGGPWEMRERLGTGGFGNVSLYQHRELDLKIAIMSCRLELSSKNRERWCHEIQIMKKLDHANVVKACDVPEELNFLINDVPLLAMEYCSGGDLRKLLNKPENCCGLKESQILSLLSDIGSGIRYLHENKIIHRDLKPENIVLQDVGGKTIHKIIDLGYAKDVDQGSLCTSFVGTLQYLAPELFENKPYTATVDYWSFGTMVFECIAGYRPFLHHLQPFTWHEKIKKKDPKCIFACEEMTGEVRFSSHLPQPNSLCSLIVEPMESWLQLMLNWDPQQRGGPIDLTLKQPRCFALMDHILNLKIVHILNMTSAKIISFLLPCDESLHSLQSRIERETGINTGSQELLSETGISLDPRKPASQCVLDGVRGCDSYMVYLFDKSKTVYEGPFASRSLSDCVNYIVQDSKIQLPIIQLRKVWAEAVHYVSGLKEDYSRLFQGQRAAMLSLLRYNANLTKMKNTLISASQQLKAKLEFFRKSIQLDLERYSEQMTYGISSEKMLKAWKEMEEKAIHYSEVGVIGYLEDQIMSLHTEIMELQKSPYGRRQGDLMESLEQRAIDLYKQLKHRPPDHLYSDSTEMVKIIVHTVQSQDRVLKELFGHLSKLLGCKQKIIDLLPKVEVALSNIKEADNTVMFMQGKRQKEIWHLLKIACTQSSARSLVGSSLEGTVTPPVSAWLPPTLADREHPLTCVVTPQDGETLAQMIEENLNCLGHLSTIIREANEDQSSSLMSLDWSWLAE

T2: IKKα (as present in transfected 293 cells)
T2 sequence (O15111 1-745, species assumed, looked up): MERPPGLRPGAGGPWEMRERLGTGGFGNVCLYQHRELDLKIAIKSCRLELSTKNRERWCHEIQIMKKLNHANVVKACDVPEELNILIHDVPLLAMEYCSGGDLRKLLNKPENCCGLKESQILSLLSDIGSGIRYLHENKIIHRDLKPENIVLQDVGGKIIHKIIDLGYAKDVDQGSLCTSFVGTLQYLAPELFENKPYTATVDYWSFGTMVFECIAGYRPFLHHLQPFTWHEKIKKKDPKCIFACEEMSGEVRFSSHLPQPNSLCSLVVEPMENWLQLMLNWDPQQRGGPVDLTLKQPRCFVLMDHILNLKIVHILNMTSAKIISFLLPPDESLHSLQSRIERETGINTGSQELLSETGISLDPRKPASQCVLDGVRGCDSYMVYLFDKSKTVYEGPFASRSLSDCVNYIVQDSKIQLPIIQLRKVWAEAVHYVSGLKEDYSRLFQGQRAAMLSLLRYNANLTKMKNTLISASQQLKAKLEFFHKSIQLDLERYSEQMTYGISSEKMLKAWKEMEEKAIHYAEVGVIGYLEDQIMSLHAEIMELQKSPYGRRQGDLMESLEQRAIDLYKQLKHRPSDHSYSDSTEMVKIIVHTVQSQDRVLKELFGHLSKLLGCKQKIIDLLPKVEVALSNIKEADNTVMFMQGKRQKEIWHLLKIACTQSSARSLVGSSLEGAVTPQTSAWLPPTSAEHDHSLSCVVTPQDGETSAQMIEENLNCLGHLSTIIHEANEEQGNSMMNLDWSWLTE

B1: Myc-NIK (protein)
chain: MAVMEMACPGAPGSAVGQQKELPKPKEKTPPLGKKQSSVYKLEAVEKSPVFCGKWEILNDVITKGTAKEGSEAGPAAISIIAQAECENSQEFSPTFSERIFIAGSKQYSQSESLDQIPNNVAHATEGKMARVCWKGKRRSKARKKRKKKSSKSLAHAGVALAKPLPRTPEQESCTIPVQEDESPLGAPYVRNTPQFTKPLKEPGLGQLCFKQLGEGLRPALPRSELHKLISPLQCLNHVWKLHHPQDGGPLPLPTHPFPYSRLPHPFPFHPLQPWKPHPLESFLGKLACVDSQKPLPDPHLSKLACVDSPKPLPGPHLEPSCLSRGAHEKFSVEEYLVHALQGSVSSSQAHSLTSLAKTWAARGSRSREPSPKTEDNEGVLLTEKLKPVDYEYREEVHWATHQLRLGRGSFGEVHRMEDKQTGFQCAVKKVRLEVFRAEELMACAGLTSPRIVPLYGAVREGPWVNIFMELLEGGSLGQLVKEQGCLPEDRALYYLGQALEGLEYLHSRRILHGDVKADNVLLSSDGSHAALCDFGHAVCLQPDGLGKSLLTGDYIPGTETHMAPEVVLGRSCDAKVDVWSSCCMMLHMLNGCHPWTQFFRGPLCLKIASEPPPVREIPPSCAPLTAQAIQEGLRKEPIHRVSAAELGGKVNRALQQVGGLKSPWRGEYKEPRHPPPNQANYHQTLHAQPRELSPRAPGPRPAEETTGRAPKLQPPLPPEPPEPNKSPPLTLSKEESGMWEPLPLSSLEPAPARNPSSPERKATVPEQELQQLEIELFLNSLSQPFSLEEQEQILSCLSIDSLSLSDDSEKNPSKASQSSRDTLSSGVHSWSSQAEARSSSWNMVLARGRPTDTPSYFNGVKVQIQSLNGEHLHIREFHRVKVGDIATGISSQIPAAAFSLVTKDGQPVRYDMEVPDSGIDLQCTLAPDGSFAWSWRVKHGQLENRP
B2: NIK-T552A (protein)
chain: B1 chain with T552A
B3: NIK-T559A (protein)
chain: B1 chain with T559A
B4: NIK-S549A (protein)
chain: B1 chain with S549A

Assays:
[1] = target: T1, kinase-deficient IKKα (K44M), Q60680
[2] = target: T2, IKKα (as present in transfected 293 …)

| Protein | phosphorylation of coimmunoprecipitated IKKα (K44M) in immunocomplex kinase reaction [1] | IKKα activity (in vitro kinase reaction on GST-IκBα (1-62)) [2] |
| --- | --- | --- |
| B1 | wild-type NIK and mutant NIK-S549A and NIK-T552A effectively phosphorylated the coimmunoprecipitated IKKα (K44M) protein in vitro |  |
| B2 | wild-type NIK and mutant NIK-S549A and NIK-T552A effectively phosphorylated the coimmunoprecipitated IKKα (K44M) protein in vitro |  |
| B3 | failed to phosphorylate the coprecipitating IKKα | the mutant NIK-T559A failed to induce IKKα activity |
| B4 | wild-type NIK and mutant NIK-S549A and NIK-T552A effectively phosphorylated the coimmunoprecipitated IKKα (K44M) protein in vitro |  |

From US6645728
